Publication PMC10399710, “The invariant chain CD74 protein is a cell surface binding partner of TIMP‐1 in breast cancer cells” (Molecular Oncology, 2023)

Biological target: T1, MHC class II‐associated invariant chain γ (CD74), endogenous in MDA‐MB‐231 cells (human (endogenous in MDA‐MB‐231), UniProt P04233 1-296)
T1 sequence (looked up): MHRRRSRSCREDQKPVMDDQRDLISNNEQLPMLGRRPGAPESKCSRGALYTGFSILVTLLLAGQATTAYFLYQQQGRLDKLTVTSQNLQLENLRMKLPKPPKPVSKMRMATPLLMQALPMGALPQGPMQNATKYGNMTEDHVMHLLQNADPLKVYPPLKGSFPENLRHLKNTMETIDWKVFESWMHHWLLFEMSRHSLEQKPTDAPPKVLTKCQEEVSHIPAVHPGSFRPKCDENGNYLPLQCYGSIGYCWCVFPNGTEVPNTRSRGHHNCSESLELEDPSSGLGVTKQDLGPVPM
Test: cell-based or functional assay

B1: his6‐tagged human recombinant TIMP‐1 protein (rTIMP‐1) (natural protein)
chain: not shown
modifications: extensively glycosylated
In the case of B1, the “P‐Akt (Ser473)/Akt ratio in MDA‐MB‐231 cells after 10 and 30 min of rTIMP‐1, normalised to 0 min (western blot)” value is reported as 2.3 P‐Akt/Akt ratio normalised to the 0 min sample.
